Test results as given in patent US20250213711A1, “ANTI-CANAG ANTIBODY CONJUGATE” (IKSUDA THERAPEUTICS LIMITED, priority 2022, published 2025).

Tests used:
Colo-205 cells = assay: Cell Titre-Glo (CTG) in vitro activity assay, Colo-205; assay type: cell-based, human; conditions: 72 h, 10% FBS (FIG. 16)
Excerpt: (§1) The ADC non-binding control was an anti-CD19 ADC (DAR 2.0) composed of the same linker-drug combination as ADC-3.

Colo-205 xenograft = conditions: CB17 SCID mice, single intravenous dose 2 mg/kg (53 nmol drug/kg), calculation based on day 16
Experimental: Mice were subcutaneously inoculated into the right flank with 5×10^6 Colo-205 cells in 0.2 mL of DPBS mixed 1:1 with BD Matrigel. […] Tumour size was measured thrice weekly in two dimensions using a calliper, and the volume was expressed in mm^3 using the formula: V=0.5 a×b^2 where a and b are the long and short diameters of the tumour, respectively (see FIGS. 17A, 18 A and 19 A). The tumour size was then used for calculations of TGI (%) values (see Table 5). TGI, representing antitumor effectiveness, were calculated using the formula TGI (%)=[1-(Vtreat-t−Vtreat-1)/(Vcontrol-t−Vcontrol-1)]×100, where Vtreat-1 and Vcontrol-1 are the mean volumes of the treated and control groups on grouping day; Vtreat-t and Vcontrol-t are the mean volumes of the treated and control groups on a given day. Animals were euthanized when tumour volumes reached 2000 mm^3. Body weight was also measured thrice weekly as a measure of compound toxicity (see FIGS. 17 B, 18 B and 19 B).

BxPC3 xenograft = assay: In vivo efficacy study in BxPC3 xenograft model; set-up: species or system mice
Experimental: Conjugate doses of 0.4 mg/kg (5.3 nmol of conjugated drug/kg), 1 mg/kg (13 nmol of conjugated drug/kg) for ADC-2 and ADC-3, and 0.2 mg/kg (5.3 nmol of conjugated drug/kg) and 0.5 mg/kg (13 nmol of conjugated drug/kg) for Cantuzumab ravtansine were used.

[1] = system: NCI-N87 gastric cancer xenograft; assay: In vivo efficacy study in NCI-N87 xenograft model; set-up: species or system mice; conditions: single intravenous dose 2 mg/kg (53 nmol drug/kg), day 33
Excerpt: as §1

CanAg antigen (human) [2] = molecular target: CanAg antigen (human) (UniProt P15941); assay: flow cytometry on CanAg positive Colo205 cells, AF488 anti-human IgG secondary, MFI curve
CanAg antigen (human) [3] = molecular target: CanAg antigen (human) (UniProt P15941); assay: flow cytometry on N87 cells, 20 µg/mL PE conjugate, Quantibrite PE beads
CanAg antigen (human) [4] = molecular target: CanAg antigen (human) (UniProt P15941); assay: flow cytometry on BxPC3 cells, 20 µg/mL PE conjugate, Quantibrite PE beads
CanAg antigen (human) [5] = molecular target: CanAg antigen (human) (UniProt P15941); assay: flow cytometry on HT-29 cells, 20 µg/mL PE conjugate, Quantibrite PE beads
CanAg antigen (human) [6] = molecular target: CanAg antigen (human) (UniProt P15941); assay: flow cytometry on SNU-16 cells, 20 µg/mL PE conjugate, Quantibrite PE beads
CanAg antigen (human) [7] = molecular target: CanAg antigen (human) (UniProt P15941); assay: flow cytometry on Colo205 cells, 20 µg/mL PE conjugate, Quantibrite PE beads

B1: Cantuzumab ravtansine: humanised ADC targeting CanAg: cantuzumab (HuC242) conjugated to the cytotoxic maytansinoid drug ravtansine; DAR 4.0 (conjugate, chains of the INN, looked up)
VH: QVQLVQSGAEVKKPGETVKISCKASDYTFTYYGMNWVKQAPGQGLKWMGWIDTTTGEPTYAQKFQGRIAFSLETSASTAYLQIKSLKSEDTATYFCARRGPYNWYFDVWGQGTTVTVSS
VL: DIVMTQSPLSVPVTPGEPVSISCRSSKSLLHSNGNTYLYWFLQRPGQSPQLLIYRMSNLVSGVPDRFSGSGSGTAFTLRISRVEAEDVGVYYCLQHLEYPFTFGPGTKLELK
modifications: ravtansine maytansinoid payload, DAR 4.0
notes: humanised ADC targeting CanAg: cantuzumab (HuC242) conjugated to the cytotoxic maytansinoid drug ravtansine; DAR 4.0
cells killed (Colo-205 cells): 75% | TGI [%] at 15 day (Colo-205 xenograft): 40% | anti-tumour response (in words) (BxPC3 xenograft; 0.2 mg/kg and 0.5 mg/kg, in comparison to ADC-2 and ADC-3 at the same conjugated drug doses (FIG. 20)): weak anti-tumour response | time at which tumour started to regrow (BxPC3 xenograft; 2 mg/kg (53 nmol drug/kg)): > 32 days | tumour inhibition (in words) (BxPC3 xenograft; 2 mg/kg (53 nmol drug/kg) (FIG. 21 A)): complete tumour inhibition | TGI [%] at 29 or 32* day (BxPC3 xenograft; single intravenous dose 0.2 mg/kg (5.3 nmol drug/kg), day 29): 24.3% | TGI [%] at 29 or 32* day (BxPC3 xenograft; single intravenous dose 0.5 mg/kg (13 nmol drug/kg), day 29): 34.6% | TGI [%] at 29 or 32* day (BxPC3 xenograft; single intravenous dose 2 mg/kg (53 nmol drug/kg), day 32): 104* % | TGI [%] at 33 day [1]: 43%

B2: HC1 + LC1 (antibody, human IgG1, kappa, V domains shown)
VH: QVQLVQSGAEVKKPGASVKVSCKASDYTFTYYGINWVRQAPGQGLEWMGWIDTTTGEPNYAQKLQGRVTFTLDTSASTAYMELRSLRSDDTAVYYCARRGPYNWYFDVWGQGTLVTVSS
VL: DIVMTQTPLSLPVTPGEPASISCRSSKSLLHSNGNTYLYWYLQKPGQSPQLLIYRMSNRASGVPDRFSGSGSGTDFTLKISRVEAEDVGVYYCLQHLEYPFTFGPGTKVDIKR
EC50 (CanAg antigen (human) [2]): 0.274 µg/mL

B3: HC3 + LC1 (antibody, human IgG1, kappa, V domains shown)
VH: QVQLVQSGAEVKKPGASVKVSCKASDYTFTYYGINWVRQATGQGLEWMGWIDTTTGEPTYAQKFQGRVTFTLETSISTAYMELSSLRSEDTAVYYCARRGPYNWYFDVWGAGTLVTVSS
VL: DIVMTQTPLSLPVTPGEPASISCRSSKSLLHSNGNTYLYWYLQKPGQSPQLLIYRMSNRASGVPDRFSGSGSGTDFTLKISRVEAEDVGVYYCLQHLEYPFTFGPGTKVDIKR
EC50 (CanAg antigen (human) [2]): 0.266 µg/mL

B4: HC1 + LC2 (antibody, human IgG1, kappa, V domains shown)
VH: QVQLVQSGAEVKKPGASVKVSCKASDYTFTYYGINWVRQAPGQGLEWMGWIDTTTGEPNYAQKLQGRVTFTLDTSASTAYMELRSLRSDDTAVYYCARRGPYNWYFDVWGQGTLVTVSS
VL: DIVMTQSPLSLPVTPGEPASISCRSSKSLLHSNGNTYLYWYLQKPGQSPQLLIYRMSNLASGVPDRFSGSGSGTDFTLKISRVEAEDVGVYYCLQHLEYPFTFGPGTKVDIKR
EC50 (CanAg antigen (human) [2]): 0.268 µg/mL

B5: HC3 + LC2 (antibody, human IgG1, kappa, V domains shown)
VH: QVQLVQSGAEVKKPGASVKVSCKASDYTFTYYGINWVRQATGQGLEWMGWIDTTTGEPTYAQKFQGRVTFTLETSISTAYMELSSLRSEDTAVYYCARRGPYNWYFDVWGAGTLVTVSS
VL: DIVMTQSPLSLPVTPGEPASISCRSSKSLLHSNGNTYLYWYLQKPGQSPQLLIYRMSNLASGVPDRFSGSGSGTDFTLKISRVEAEDVGVYYCLQHLEYPFTFGPGTKVDIKR
EC50 (CanAg antigen (human) [2]): 0.327 µg/mL

B6: HC2 + LC2 (antibody, human IgG1, kappa, V domains shown)
VH: QVQLVQSGAEVKKPGASVKVSCKASDYTFTYYGMNWVRQAPGQGLEWMGWIDTTTGEPSYAQKFQGRVTFTLDTSASTVYMELSSLRSEDTAVYYCARRGPYNWYFDVWGQGTLVTVSS
VL: DIVMTQSPLSLPVTPGEPASISCRSSKSLLHSNGNTYLYWYLQKPGQSPQLLIYRMSNLASGVPDRFSGSGSGTDFTLKISRVEAEDVGVYYCLQHLEYPFTFGPGTKVDIKR
EC50 (CanAg antigen (human) [2]): 0.408 µg/mL

B7: HC2 + LC3 (antibody, human IgG1, kappa, V domains shown)
VH: QVQLVQSGAEVKKPGASVKVSCKASDYTFTYYGMNWVRQAPGQGLEWMGWIDTTTGEPSYAQKFQGRVTFTLDTSASTVYMELSSLRSEDTAVYYCARRGPYNWYFDVWGQGTLVTVSS
VL: DIVMTQTPLSLSVTPGQPASISCKSSKSLLHSNGNTYLYWYLQKPGQSPQLLIYRMSNLFSGVPDRFSGSGSGTDFTLKISRVEAEDVGVYYCLQHLEYPFTFGPGTKVDIKR
EC50 (CanAg antigen (human) [2]): 0.354 µg/mL

B8: HC3 + LC3 (antibody, human IgG1, kappa, V domains shown)
VH: QVQLVQSGAEVKKPGASVKVSCKASDYTFTYYGINWVRQATGQGLEWMGWIDTTTGEPTYAQKFQGRVTFTLETSISTAYMELSSLRSEDTAVYYCARRGPYNWYFDVWGAGTLVTVSS
VL: DIVMTQTPLSLSVTPGQPASISCKSSKSLLHSNGNTYLYWYLQKPGQSPQLLIYRMSNLFSGVPDRFSGSGSGTDFTLKISRVEAEDVGVYYCLQHLEYPFTFGPGTKVDIKR
EC50 (CanAg antigen (human) [2]): 0.294 µg/mL

B9: HC1 + LC3 (antibody, human IgG1, kappa, V domains shown)
VH: QVQLVQSGAEVKKPGASVKVSCKASDYTFTYYGINWVRQAPGQGLEWMGWIDTTTGEPNYAQKLQGRVTFTLDTSASTAYMELRSLRSDDTAVYYCARRGPYNWYFDVWGQGTLVTVSS
VL: DIVMTQTPLSLSVTPGQPASISCKSSKSLLHSNGNTYLYWYLQKPGQSPQLLIYRMSNLFSGVPDRFSGSGSGTDFTLKISRVEAEDVGVYYCLQHLEYPFTFGPGTKVDIKR
EC50 (CanAg antigen (human) [2]): 0.305 µg/mL

B10: Phycoerythrin (PE)-conjugated HC1LC1 antibody (antibody, V domains shown)
VH: QVQLVQSGAEVKKPGASVKVSCKASDYTFTYYGINWVRQAPGQGLEWMGWIDTTTGEPNYAQKLQGRVTFTLDTSASTAYMELRSLRSDDTAVYYCARRGPYNWYFDVWGQGTLVTVSS
VL: DIVMTQTPLSLPVTPGEPASISCRSSKSLLHSNGNTYLYWYLQKPGQSPQLLIYRMSNRASGVPDRFSGSGSGTDFTLKISRVEAEDVGVYYCLQHLEYPFTFGPGTKVDIKR
modifications: R-phycoerythrin conjugated by Lightning-Link kit; sites not stated
PE molecules per cell (PE molecules per cell) (CanAg antigen (human) [3]): 2570 | PE molecules per cell (PE molecules per cell) (CanAg antigen (human) [4]): 75300 | PE molecules per cell (PE molecules per cell) (CanAg antigen (human) [5]): 626000 | PE molecules per cell (PE molecules per cell) (CanAg antigen (human) [6]): 1.15e+07 | PE molecules per cell (PE molecules per cell) (CanAg antigen (human) [7]): 2.61e+06

B11: HC2 + LC1 (antibody, human IgG1, kappa, V domains shown)
VH: QVQLVQSGAEVKKPGASVKVSCKASDYTFTYYGMNWVRQAPGQGLEWMGWIDTTTGEPSYAQKFQGRVTFTLDTSASTVYMELSSLRSEDTAVYYCARRGPYNWYFDVWGQGTLVTVSS
VL: DIVMTQTPLSLPVTPGEPASISCRSSKSLLHSNGNTYLYWYLQKPGQSPQLLIYRMSNRASGVPDRFSGSGSGTDFTLKISRVEAEDVGVYYCLQHLEYPFTFGPGTKVDIKR
EC50 (CanAg antigen (human) [2]): 0.351 µg/mL
